According to US7427595 (CORNELL RESEARCH FOUNDATION, dated 2008):
One block for each binder: values may come before it.

Tests used:
[1] = molecular target: T1, PEPI in human bronchoalveolar lavage (BAL) fluid (human, UniProt P28799 18-593); assay: immunoprecipitation of PEPI from BAL fluids of two individuals, anti-SLPI blot
T1 construct: Endogenous protein, immunoprecipitated with antiserum against human PEPI; also called proepithelin
T1 sequence (looked up): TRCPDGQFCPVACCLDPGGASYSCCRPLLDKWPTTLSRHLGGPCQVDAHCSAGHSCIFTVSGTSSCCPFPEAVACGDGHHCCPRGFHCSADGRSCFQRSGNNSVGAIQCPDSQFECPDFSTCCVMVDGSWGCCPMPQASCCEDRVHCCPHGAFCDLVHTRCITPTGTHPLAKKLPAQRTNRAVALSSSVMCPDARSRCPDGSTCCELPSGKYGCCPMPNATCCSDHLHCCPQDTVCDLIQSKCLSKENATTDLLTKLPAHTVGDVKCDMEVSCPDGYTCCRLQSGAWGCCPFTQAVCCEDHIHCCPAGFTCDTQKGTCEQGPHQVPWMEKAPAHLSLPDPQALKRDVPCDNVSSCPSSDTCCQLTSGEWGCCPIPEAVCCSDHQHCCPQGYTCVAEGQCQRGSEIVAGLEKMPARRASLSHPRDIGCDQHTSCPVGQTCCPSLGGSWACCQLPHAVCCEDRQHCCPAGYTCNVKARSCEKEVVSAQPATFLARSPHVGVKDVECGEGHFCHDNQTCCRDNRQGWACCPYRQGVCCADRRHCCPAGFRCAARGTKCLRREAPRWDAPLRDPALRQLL
Experimental: BAL fluids were collected from healthy adult subjects according to an institutional review board-approved protocol following informed consent. The fluids (45 ml each) were concentrated to 0.5 ml in a Centriprep (Millipore) with 10 kDa cut-off before immunoprecipitation with antiserum against human PEPI and western blotting with antisera against human SLPI or human PEPI.
To test if a SLPI-PEPI complex exists in vivo normal human bronchoalveolar lavage (BAL) fluid samples were examined because both SLPI and PEPI are strongly expressed in airway epithelium (Abe et al., 1991; Daniel et al., 2000). PEPI was immunoprecipitated from the BAL fluids collected from two individuals, and SLPI was detected in the PEPI immunoprecipitates (FIG. 2D). Thus, the SLPI-PEPI complex is physiologic.

[2] = molecular target: T2, partial mouse PEPI (1180 bp of the ORF) in fusion with the activation domain of GAL4 (GAL4-AD), 21 two-hybrid … (yeast; mouse, UniProt P28798 197-589, limits assumed); assay: yeast two-hybrid, growth without histidine and LacZ expression
T2 construct: EPIs G and F absent; also called proepithelin
T2 sequence: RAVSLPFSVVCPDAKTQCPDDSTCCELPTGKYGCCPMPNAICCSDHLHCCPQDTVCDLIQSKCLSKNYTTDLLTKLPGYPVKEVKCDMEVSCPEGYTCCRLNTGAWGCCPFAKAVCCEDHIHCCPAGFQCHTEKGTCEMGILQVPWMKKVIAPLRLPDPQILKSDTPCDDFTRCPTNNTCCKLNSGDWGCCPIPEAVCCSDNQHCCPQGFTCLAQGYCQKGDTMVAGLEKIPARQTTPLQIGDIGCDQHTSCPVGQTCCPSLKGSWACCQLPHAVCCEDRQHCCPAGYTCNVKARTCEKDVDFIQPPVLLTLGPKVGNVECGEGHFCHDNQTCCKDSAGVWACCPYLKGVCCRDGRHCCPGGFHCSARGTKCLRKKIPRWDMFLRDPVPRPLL

[3] = molecular target: T3, recombinant human SLPI (Amgen) (human, UniProt P03973 26-132); assay: reciprocal co-immunoprecipitation of pure recombinant proteins (anti-FLAG M2 and anti-SLPI), western blot
T3 construct: Obtained from Amgen; also called SLPIwt; wild type human SLPI
Description: PEPI and SLPI were transiently expressed in HEK293 or COS-1 cells. FLAG-tagged PEPI (aa 18-593) was expressed from pCMVI-FLAG and SLPI constructs from pcDNA3.1 (Invitrogen). SLPI constructs included mouse full length (aa 1-131), mouse N-terminal domain (aa 1-80), mouse C-terminal domain (aa 1-25/81-131), and human full-length (aa 1-131). Three days following co-transfection via SuperFect reagent (Qiagen), conditioned media were immunoprecipitated with FLAG M2 antibody (Sigma), separated by reducing SDS-PAGE and western blotted with anti-SLPI antibody (Jin et al., 1997). For in vitro immunoprecipitation assays, recombinant human PEPI or EPI (FLAG-tagged) and SLPI (5 pmol each) were incubated in 10 mM Tris-HCl (pH 7.5), 150 mM NaCl at 37° C. for 30 min before immunoprecipitation with anti-FLAG M2 antibody and western blotting with anti-SLPI antibody or the reverse.
Next, experiments were performed to ascertain which part of PEPI binds to SLPI (for the order of EPIs in PEPI, see FIG. 1A). EPIs G and F were absent in the partial PEPI sequences isolated as SLPI-binding proteins in yeast (FIG. 1A) and thus were dispensable for the interaction. […] When FLAG-tagged recombinant human EPI A or EPI B was incubated with recombinant human SLPI at an equimolar ratio (FIG. 2E) or at a molar ratio of A (or B):SLPI::1:5 (not shown), SLPI was not detected in EPI immunoprecipitates or vice versa. […]

[4] = molecular target: T4, recombinant mouse SLPI (Amgen)
T4 chain: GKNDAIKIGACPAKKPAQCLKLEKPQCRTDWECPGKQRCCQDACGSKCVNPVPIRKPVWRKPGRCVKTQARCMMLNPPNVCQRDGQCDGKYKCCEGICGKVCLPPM

[5] = molecular target: T5, recombinant human SLPI (Amgen)
T5 chain: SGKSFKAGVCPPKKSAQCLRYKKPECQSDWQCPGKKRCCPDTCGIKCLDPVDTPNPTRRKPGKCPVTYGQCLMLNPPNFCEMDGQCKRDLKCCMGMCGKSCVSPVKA

B2: lamin C (other, UniProt P02545-2 67-230, looked up)
chain: EEVVSREVSGIKAAYEAELGDARKTLDSVAKERARLQLELSKVREEFKELKARNTKKEGDLIAAQARLKDLEALLNSKEAALSTALSEKRTLEGELHDLRGQVAKLEAALGEAKKQLQDEMLRRVDAENRLQTMKEELDFQKNIYSEELRETKRRHETRLVEID
notes: Non-specific control in the yeast two-hybrid test
- binding result [2]: no binding

B4: recombinant human EPI B (aa 206-261) with an N-terminal FLAG-6xHis tag, from insect cells (other)
chain: VMCPDARSRCPDGSTCCELPSGKYGCCPMPNATCCSDHLHCCPQDTVCDLIQSKCL
notes: also called epithelin B; not shown: N-terminal FLAG-6xHis tag
- binding result [3]: no binding

B5: human neutrophil elastase (Sigma) (protein)
chain: IVGGRRARPHAWPFMVSLQLRGGHFCGATLIAPNFVMSAAHCVANVNVRAVRVVLGAHNLSRREPTRQVFAVQRIFENGYDPVNLLNDIVILQLNGSATINANVQVAQLPAQGRRLGNGVQCLAMGWGLLGRNRGIASVLQELNVTVVTSLCRRSNVCTLVRGRQAGVCFGDSGSPLVCNGLIHGIASFVRGGCASGLYPDAFAPVAQFVNWIDSIIQ
- cleavage of PEPI by elastase (anti-FLAG western blot) [4]: human and mouse SLPI did block the cleavage of human PEPI by elastase, human SLPI being the more potent
- cleavage of PEPI by elastase (anti-FLAG western blot) [5]: human and mouse SLPI did block the cleavage of human PEPI by elastase, human SLPI being the more potent

The next lines start with the values.

- binding result [1]: binds
B1: SLPI in human bronchoalveolar lavage (BAL) fluid (other, UniProt P03973 26-132, looked up)
chain: SGKSFKAGVCPPKKSAQCLRYKKPECQSDWQCPGKKRCCPDTCGIKCLDPVDTPNPTRRKPGKCPVTYGQCLMLNPPNFCEMDGQCKRDLKCCMGMCGKSCVSPVKA
notes: Endogenous protein

- binding result [3]: no binding
B3: recombinant human EPI A (aa 281-337) with an N-terminal FLAG-6xHis tag, from insect cells (other)
chain: DVKCDMEVSCPDGYTCCRLQSGAWGCCPFTQAVCCEDHIHCCPAGFTCDTQKGTCEQ
notes: the construct is stated as aa 281-337; also called epithelin A; not shown: N-terminal FLAG-6xHis tag
